Source: paper PMC2953525, “Subtle Alterations in PCNA-Partner Interactions Severely Impair DNA Replication and Repair” (PLoS Biology, 2010)
Where a chain is given by its changes, count along the chain named.

B1: pol30-Msh6E6: PCNA mutant evolved for Msh6, IDCL sequence DYDKDLLKIIEL (protein)
chain: MLEAKFEEASLFKRIIDGFKDCVQLVNFQCKEDGIIAQAVDDSRVLLVSLEIGVEAFQEYRCDHPVTLGMDLTSLSKILRCGNNTDTLTLIADNTPDSIILLFEDTKKDRIAEYSLKLMDYDKDLLKIIELQYDSTLSLPSSEFSKIVRDLSQLSDSINIMITKETIKFVADGDIGSGSVIIKPFVDMEHPETSIKLEMDQPVDLTFGAKYLLDIIKGSSLSDRVGIRLSSEAPALFQFDLKSGFLQFFLAPKFNDEE
modifications: left off: Gal4 activation domain, end not stated, kept
B2: pol30-Msh6E2: PCNA mutant evolved for Msh6, IDCL sequence DYDRDMLKISEL (protein)
chain: B1 chain with K123R, L125M, I129S
modifications: left off: Gal4 activation domain, end not stated, kept
B3: pol30-Rad30E9: PCNA mutant evolved for Rad30, IDCL sequence DNDWDFLKIDEL (protein)
chain: B1 chain with Y121N, K123W, L125F, I129D
modifications: left off: Gal4 activation domain, end not stated, kept
B4: pol30-Rad27E6: PCNA mutant evolved for Rad27, IDCL sequence DGDYDILKIREL (protein)
chain: B1 chain with Y121G, K123Y, L125I, I129R
modifications: left off: Gal4 activation domain, end not stated, kept
B5: pol30-79: previously studied PCNA mutant with decreased partner binding, IDCL sequence DIDADFAKAEEL (protein)
chain: B1 chain with Y121I, K123A, L125F, L126A, I128A, I129E
modifications: left off: Gal4 activation domain, end not stated, kept
B6: pol30-Rad30E2: PCNA mutant evolved for Rad30, IDCL sequence DDDWDFLKILEL (protein)
chain: B1 chain with Y121D, K123W, L125F, I129L
modifications: left off: Gal4 activation domain, end not stated, kept
B7: pol30-Pol32E5: PCNA mutant evolved for Pol32, IDCL sequence DADNDFLKISEL (protein)
chain: B1 chain with Y121A, K123N, L125F, I129S
modifications: left off: Gal4 activation domain, end not stated, kept

test system: Apn2; assay: Yeast two hybrid (Y2H) analysis of PCNA-partner interaction; format: binding; design: key: ++: major increase in growth; +: moderate increase in growth; similar growth as the WT PCNA-expressing cells; -: minor decrease in growth; --: moderate decrease in growth; ---: major decrease in growth; conditions: spotting onto selective agar plates; PCNA fused to AD, partner to BD
Procedure: (§1) Y2H analysis was performed using the Yeast Two Hybrid Phagemid vector kit (Stratagene), following the manufacturer's instructions. The pAD-PCNA-WT/mutant plasmids were used as bait while plasmids encoding 12 different PCNA partners (Table 1 and Table S1) were used as prey. The YRG2 host strain (Stratagene) was cotransformed with pAD-PCNA WT/mutant and pBD-partner plasmids in all possible combinations using the LiAC method. Single transformants were grown in liquid SC-Leu-Trp to O.D600 10, washed twice with DDW, and diluted to an initial OD600 of 0.3. A series of 10-fold serial dilutions was then spotted onto selective SC-Leu-Trp-His plates and incubated at 30°C for 3 d. For quantitative Y2H, the generation time of the indicated mutants and their respective partners were calculated from their growth curves in liquid SC-Leu-Trp-His media. Cells were grown overnight in SC-Leu-Trp, washed twice with ddH2O, and diluted by a factor of 1∶50 into 10 ml of pre-warmed SC-Leu-Trp-His. O.D600 measurements of the cultures were taken at the indicated time; the generation time (τ) was calculated from the growth curves according to the equation ODt = OD0×2^t/τ. The generation time calculated for each culture is an average of at least 3 independent experiments.
(§2) Table S1: Yeast two hybrid analysis of binding of selected PCNA mutants with seven additional partners not described in Table 1 of the main text. […]
(§3) pol30-Rad30E2 WT WT WT WT WT WT - pol30-Rad30E9 WT WT WT WT WT WT WT pol30-Rad27E6 WT WT WT WT + WT WT pol30-Rad27E31 WT WT WT WT + WT WT pol30-Rad27L1 WT -- WT WT -- WT WT pol30-Rad27L2 WT -- WT WT -- WT WT pol30-Pol32E5 WT WT WT WT WT WT WT pol30-Pol32E9 - WT WT WT WT WT WT pol30-Msh6E2 WT WT + WT WT WT WT pol30-Msh6E6 WT WT ++ WT WT WT WT pol30-Ung1E3 WT - WT WT WT WT WT pol30-79 --- --- --- - --- --- --- a PCNA mutants with enhanced affinities for the different target partners (see Table 1, text). b PCNA mutants were fused to the activating domain (AD), while the different partners were fused to the DNA-binding domain (BD). The growth of the resulting Y2H strains was compared to the growth of the WT PCNA-expressing strain following spotting onto selective agar plates (see Material and Methods). Growth rates on the agar plates were scored and tabulated as follows: ++ major increase in growth; + moderate increase in growth; WT-similar growth as the WT PCNA-expressing cells; - minor decrease in growth; -- moderate decrease in growth; --- major decrease in growth. ND-Not determined.

Molecule	Y2H growth relative to WT PCNA-expressing strain: Apn2
B1	WT
B2	WT
B3	WT
B4	WT
B5	---
B6	-
B7	WT

test system: Cac1; assay: as above; format: binding; design: key: ++: major increase in growth; +: moderate increase in growth; similar growth as the WT PCNA-expressing cells; -: minor decrease in growth; --: moderate decrease in growth; ---: major decrease in growth; conditions: spotting onto selective agar plates; PCNA fused to AD, partner to BD
Procedure: as §1, §2, §3

Molecule	Y2H growth relative to WT PCNA-expressing strain: Cac1
B1	WT
B2	WT
B3	WT
B4	+
B5	---
B6	WT
B7	WT

test system: Cdc9; assay: as above; format: binding; design: key: ++: major increase in growth; +: moderate increase in growth; similar growth as the WT PCNA-expressing cells; -: minor decrease in growth; --: moderate decrease in growth; ---: major decrease in growth; conditions: spotting onto selective agar plates; PCNA fused to AD, partner to BD
Procedure: as §1, §2, §3

Molecule	Y2H growth relative to WT PCNA-expressing strain: Cdc9
B1	WT
B2	WT
B3	WT
B4	WT
B5	---
B6	WT
B7	WT

test system: Eco1; assay: as above; format: binding; design: key: ++: major increase in growth; +: moderate increase in growth; similar growth as the WT PCNA-expressing cells; -: minor decrease in growth; --: moderate decrease in growth; ---: major decrease in growth; conditions: spotting onto selective agar plates; PCNA fused to AD, partner to BD
Procedure: as §1, §2, §3

Molecule	Y2H growth relative to WT PCNA-expressing strain: Eco1
B1	WT
B2	WT
B3	WT
B4	WT
B5	---
B6	WT
B7	WT

test system: Msh3; assay: as above; format: binding; design: key: ++: major increase in growth; +: moderate increase in growth; similar growth as the WT PCNA-expressing cells; -: minor decrease in growth; --: moderate decrease in growth; ---: major decrease in growth; conditions: spotting onto selective agar plates; PCNA fused to AD, partner to BD
Procedure: as §1, §2, §3

Molecule	Y2H growth relative to WT PCNA-expressing strain: Msh3
B1	++
B2	+
B3	WT
B4	WT
B5	---
B6	WT
B7	WT

test system: Rfc1; assay: as above; format: binding; design: key: ++: major increase in growth; +: moderate increase in growth; similar growth as the WT PCNA-expressing cells; -: minor decrease in growth; --: moderate decrease in growth; ---: major decrease in growth; conditions: spotting onto selective agar plates; PCNA fused to AD, partner to BD
Procedure: as §1, §2, §3

Molecule	Y2H growth relative to WT PCNA-expressing strain: Rfc1
B1	WT
B2	WT
B3	WT
B4	WT
B5	-
B6	WT
B7	WT

test system: Rrm3; assay: as above; format: binding; design: key: ++: major increase in growth; +: moderate increase in growth; similar growth as the WT PCNA-expressing cells; -: minor decrease in growth; --: moderate decrease in growth; ---: major decrease in growth; conditions: spotting onto selective agar plates; PCNA fused to AD, partner to BD
Procedure: as §1, §2, §3

Molecule	Y2H growth relative to WT PCNA-expressing strain: Rrm3
B1	WT
B2	WT
B3	WT
B4	WT
B5	---
B6	WT
B7	WT

test system: Rad30 PIP peptide; assay: SPR analysis of PCNA binding to PIP peptide; design: species or system yeast; conditions: SPR
Excerpt: To quantify differences in binding affinities of the PCNA mutants relative to the WT, we characterized four PCNA mutants with increased affinity for PIP peptides derived from Rad30, Pol32, Msh6, and Ung1 partners using SPR. These mutants were overexpressed in E. coli, purified by affinity chromatography, and immobilized on an SPR sensor chip for binding characterization. SPR binding analysis enabled direct and sensitive measurement of interaction affinities relative to the Y2H system and indicated an up to 8-fold increase in binding affinity for the different PIP peptides, relative to WT PCNA (Table 1). Such analysis allowed the detection of a significant decrease in the Rad30 PIP peptide dissociation rate in the Pol30-Rad30E9p mutant relative to the WT, indicating a ∼9-fold increase in the lifetime of the PCNA-Rad30 complex (see Table 1). Collectively the ELISA, Y2H, and SPR assays validated and quantified the increase in mutant PCNA binding affinities, relative to WT PCNA.
Protein interaction assays were carried out using the ProteOn XPR36 (Bio-Rad) instrument. WT or PCNA mutants (0.4 to 5.2 fmol) were immobilized on the surface of a GLM sensor chip by a carbodiimide-activated succinimide-coupling method, as specified by the manufacturer. All SPR experiments were performed by flowing 150 µl of the target peptide at a flow rate of 30 µl/min onto the PCNA-bound chip. Different concentrations (5–5,000 nM) of PIP peptides (Table 1) were injected over the PCNA chip, and binding parameters were determined using ProteOn XPR36 software (Bio-Rad). The ligand (PCNA) and analyte (peptide) buffers were PBST and 150 mM NaCl, 1 mM EDTA, 0.01% Tween-80, 30 mM Hepes, pH 7.5, respectively.

Molecule	off-rate (kd) of the Rad30 PIP peptide
B3	0.00321 s⁻¹

same assay, conditions: SPR, from Rad30 PIP peptide dissociation rate, relative to the WT

Molecule	fold increase in the lifetime of the PCNA-Rad30 complex
B3	~9 fold

same assay, conditions: footnote d; PCNA immobilized on GLM chip, peptide 5-5,000 nM

Molecule	Fold increase in binding affinity for Rad30 PIP peptide relative to WT PCNA (SPR)
B3	8.5 fold
